Data set [1] has as its target peroxide response regulator (PerR) from Group A streptococcus, recombinant 6xHis-tagged, wild type (Streptococcus pyogenes (Group A streptococcus) serotype M1 strain A20). Put plainly: SEC; Superdex 75 size exclusion chromatography of purified PerR against molecular weight markers; apparent molecular weight about 42 kDa for the wild type. On the technique in general: In gel filtration, larger molecules generally elute earlier.

A further data set addresses T1, PerR WT (Streptococcus pyogenes (GAS) serotype …, UniProt Q9A1M6 1-155).
T1 sequence: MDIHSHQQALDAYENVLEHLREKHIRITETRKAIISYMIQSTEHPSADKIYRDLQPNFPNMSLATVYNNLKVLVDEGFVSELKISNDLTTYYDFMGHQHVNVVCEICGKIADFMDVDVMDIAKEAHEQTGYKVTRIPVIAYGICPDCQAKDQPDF
Briefly: EMSA; EMSA: 20 mM Tris pH 8.0, 50 mM KCl, 5% glycerol, 50 ug/ml BSA, 15 min at 25 C; 6% native PAGE in Tris-borate, ethidium bromide. Conditions: protein: recombinant; tags: C-terminal 6xHis (pET-21b NdeI/XhoI); chain copies: 2. (In general: In EMSA bound probe runs differently from free probe, usually more slowly.)

Usually stoichiometry N stands for the number of molecules, sites or subunits per partner or assembly. As to “peroxide response regulator (PerR) from Group A streptococcus, recombinant 6xHis-tagged, wild type (natural protein)”, the stoichiometry N in data set [1] is 2.

B1: dpr segment (-185 to -135) (dsDNA)
DNA 1: ACACTTAATTAGAATCATTATCGTTTTATATCTATATTCTACAATGATTAA
DNA 2: TTAATCATTGTAGAATATAGATATAAAACGATAATGATTCTAATTAAGTGT
For the molecule B1, in the data set with PerR WT, the binding result was “binds”.
